This series has as its target T1, YycF (Staphylococcus aureus (ATCC29213?)) (UniProt Q9RDT5).
T1 sequence: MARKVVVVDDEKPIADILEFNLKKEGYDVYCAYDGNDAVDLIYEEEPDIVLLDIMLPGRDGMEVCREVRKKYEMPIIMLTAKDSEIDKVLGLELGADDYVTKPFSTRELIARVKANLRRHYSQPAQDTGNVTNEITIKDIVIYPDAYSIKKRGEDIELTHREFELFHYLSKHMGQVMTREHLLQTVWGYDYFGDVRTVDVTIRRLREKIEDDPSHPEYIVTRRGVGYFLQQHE
Put plainly: EMSA. The note with it: binding buffer not stated. (In general: Mobility shift assays separate free from complexed probe on a gel.)

Experimental findings from paper PMC9593060 are described below.

On to “TGTGAAATATCAATTTGATTGAAAATTAGACAAAAATAAAGAAATGACTTCAACATAATCATCAAAGTCATTTCGTTGAGTTGACTACTGCCAAGATAACATCGTCACGACTAGGACATTGAATTATGTCCCAGACTCATCGACT (double strand) [PcodY (codY promoter region)]”, for which the binding entry is “binds”.
